B1: TaLcc3: Thielavia arenaria ALKO 4197 laccase, SEQ ID NO: 43, produced in Trichoderma reesei (protein)
chain: MVCLQYQLTAACFAVLAVVTTPASCSPVQPSPVHDLLPRQTIIPGGKPCGQNNATNRGCWKNNWNITTDYEVDTPPAFNTRVYDLHITNVTNWLGPDGVRKPAMLINGSFPGPTISADWGDYIIVNVHNDMQDNGTSIHWHGIRQLGESNQDGANGVTECPIPPGSSKTYDFHVTQYGTSWYHSHYSNQYGNGVVGALIVRGPASANYDIDLGPYLISDYYYETADRLHLRAELVSNGPPPDSDNILFRGKNINPKRAGSGSYDRLVLTPGKKHLIRLINASVDNSFVISLVGHNFTVISTDMVPITPVVRSSLFMGVGQRYDVIVEANQPVGNYWLNATLEAQNNCGHSVNPFPAAIVQYEGASSTALPTNRGTPLTATCNGEKGFSPIVKRTVSSSLFQPSTLPVSLEFPTTDRGQVFEWRVKNTPISVEWEHPVLEYILQGNTSFPAKANLIEVPQANVWTFWVIQNGFGLPHPIHLHGHDFLVLGVGNGTFDAASMRGLLNFNNPVRRDVEQMPGNGWLVIAFKTDNPGCWLMHCHIGWHVAMGLGIQFLERRSDILALMKLDQMVPNCEAWRAYARTSPYLPKLDSGLKRGVEMREGMEPAVRRIG
modifications: Thielavia arenaria ALKO4197; (1)..(611) Deduced amino acid sequence of Thielavia arenaria LAKO4197 TaLcc3
B2: MaL: well-known fungal laccase from Melanocarpus albomyces (protein, UniProt Q70KY3 51-609, looked up)
Laccase-1: EPTCNTPSNRACWSDGFDINTDYEVSTPDTGVTQSYVFNLTEVDNWMGPDGVVKEKVMLINGNIMGPNIVANWGDTVEVTVINNLVTNGTSIHWHGIHQKDTNLHDGANGVTECPIPPKGGQRTYRWRARQYGTSWYHSHFSAQYGNGVVGTIQINGPASLPYDIDLGVFPITDYYYRAADDLVHFTQNNAPPFSDNVLINGTAVNPNTGEGQYANVTLTPGKRHRLRILNTSTENHFQVSLVNHTMTVIAADMVPVNAMTVDSLFLAVGQRYDVVIDASRAPDNYWFNVTFGGQAACGGSLNPHPAAIFHYAGAPGGLPTDEGTPPVDHQCLDTLDVRPVVPRSVPVNSFVKRPDNTLPVALDLTGTPLFVWKVNGSDINVDWGKPIIDYILTGNTSYPVSDNIVQVDAVDQWTYWLIENDPEGPFSLPHPMHLHGHDFLVLGRSPDVPAASQQRFVFDPAVDLARLNGDNPPRRDTTMLPAGGWLLLAFRTDNPGAWLFHCHIAWHVSGGLSVDFLERPADLRQRISQEDEDDFNRVCDEWRAYWPTNPYPKIDSGL

What was measured:
[1] = Specific activity towards ABTS; type: biochemical; settings: 25 mM succinate buffer pH 4.5, 25° C.
Experimental: The activity assay was carried out in accordance with the method developed by Niku-Paavola et al. (1988). The sample was diluted with 0.025 M succinate buffer, pH 4.5. […] The activity is expressed as nano katals.
(§1) Specific activities of the purified T. arenaria and C. thermophilum laccases were determined towards different laccase substrates.

[2] = Isoelectric focusing (pI); type: physicochemical; settings: pH range 3-9
Experimental: Molecular weight of the T. arenaria and C. thermophilum laccases were determined on SDS-PAGE according to Laemmli (1970) The gels used in the SDS-PAGE analysis were ready-made 12% Tris HCl gels (BioRad). Protein bands were visualized by staining with Coomassie Brilliant Blue (R 350; Pharmacia) and compared with molecular weight markers (Prestained Protein Marker Broad Range #7708S; New England BioLabs, Beverly, Mass.). The molecular weight of the both laccases was approximately 80 kDa. The isoelectric point of the laccases was determined with isoelectric focusing within the pH range of 3-9 (Pharmalyte IEF, Pharmacia) on a LKB 2117 Multiphor II Electrophoresis System (LKB Pharmacia, Bromma, Sweden) according to the manufacturer's instructions.
The purified recombinant Thielavia and Chaetomium laccases were characterized in terms of pH optimum, thermal stability, and pI as described in Example 2. The molecular weight was determined by MALDI-TOF mass spectrometry on a Ultraflex™ time-of-flight instrument (BrukerDaltonics, Germany) as previously described (Palonen et al., 2003). The redox-potentials of the T1 coppers of for CtLcc, and TaLcc2 laccases were determined by photometric copper titration in 0.1 M KH2PO4 (pH 6.0) as described by Xu et al. (1996) using the redox titrant couple K3Fe(CN)6/K4Fe(CN)6. The redox potential of TaLcc1 was determined with a combined Pt—AgCl/KCl microelectrode at pH 5.0 according to Sigoillot et al (2004). The characterization results are collected to Table 14.

[3] = Specific activity towards guaiacol; type: biochemical; settings: 25 mM MES buffer, pH 5.5
Experimental: as §1

[4] = Specific activity towards syringaldazine; type: biochemical; settings: 25 mM MES buffer, pH 5.5
Experimental: as §1

[5] = Specific activity towards di-methoxy-phenol (DMP); type: biochemical; settings: 25 mM MES buffer, pH 5.5
Experimental: as §1

Row | Molecule | Specific activity on ABTS [1] | pI [2] | Specific activity on guaiacol [3] | Specific activity on syringaldazin [4] | Specific activity on DMP [5]
1 | B1 | 8.3 nkat/mg | 7.0-8.0 | 0 nkat/mg | 3.6 nkat/mg | 2.1 nkat/mg
2 | B2 | 840 nkat/mg | – | 90 nkat/mg | 380 nkat/mg | 290 nkat/mg
